Test results: patent publication US20190071480A1 (Biogen, published 2019)
Changes are numbered by the printed parent chain. Blank lines part the entries; values can stand above or below the binder they belong to.

What was measured:
[1] = molecular target: T1, extracellular domain of activin receptor type IIB (ActRIIBecd), biotinylated (Homo sapiens (Human), UniProt Q13705 27-117, amino-biotinylated with amine-PEG3-Biotin); assay: BIAcore SPR, biotinylated ActRIIBecd on chip; SD ±13.24 nM
T1 construct: immobilised on a streptavidin-coated sensor chip; also called biotinylated ActRIIBecd; extracellular domain of ActRIIB
T1 sequence: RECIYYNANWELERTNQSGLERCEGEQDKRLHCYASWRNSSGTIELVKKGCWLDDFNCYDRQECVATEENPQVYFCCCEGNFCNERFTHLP
Protocol: (§1) Biosensor experiments. In one embodiment, experiments were performed on a BIAcore™ T100/T200 instrument (Pharmacia Biosensor AB) in the multichannel mode (serial flow path involving flow cells 1+2+3+4). Flow rate was 10 μl/min; temperature was 25° C.; and data were recorded at 2.5 points/s. All four segments of a sensor chip CMS were coated with streptavidin (Sigma) to a density of 2000 pg/mm² (2000 resonance units) by the aminocoupling procedure. ActRIIBecd (10 mg) and amine-PEG3-Biotin (10 mg, Pierce, Rockford, Ill.) were dissolved in 200 μl H₂O and 10 mg NaCNBH₃ was added to prepare biotinylated ActRIIBecd. The reaction mixture was heated at 70° C. for 24 h, after that a further 10 mg NaCNBH₃ was added and the reaction was heated at 70° C. for another 24 h. After cooling to room temperature, the mixture was desalted with the spin column (3,000 molecular weight cut off (MWCO)). […] Sensograms were recorded during flow of the analyte (the ActRIIBecd-associated polypeptides (i.e., domains) as previously described) first through flow cell 1 (control) then through flow cell 2 (biotinylated ActRIIBecd). […] The sensograms obtained at 1.11, 3.33, 10, 30, and 90 nM analyte were evaluated for equilibrium binding, association rate, and dissociation rate by using the programs supplied with the instrument (BIA evaluation 2.1; Software Handbook. 1995; Pharmacia Biosensor AB).

[2] = molecular target: T1, extracellular domain of activin …; assay: BIAcore SPR, biotinylated ActRIIBecd on chip; SD ±13.42 nM
Protocol: as §1

[3] = molecular target: T1, extracellular domain of activin …; assay: BIAcore SPR, biotinylated ActRIIBecd on chip; SD ±14.25 nM
Protocol: as §1

[4] = molecular target: T1, extracellular domain of activin …; assay: BIAcore SPR, biotinylated ActRIIBecd on chip; SD ±12.76 nM
Protocol: as §1

[5] = molecular target: T1, extracellular domain of activin …; assay: BIAcore SPR, biotinylated ActRIIBecd on chip; SD ±14.78 nM
Protocol: as §1

[6] = molecular target: T1, extracellular domain of activin …; assay: BIAcore SPR, biotinylated ActRIIBecd on chip; SD ±11.79 nM
Protocol: as §1

[7] = molecular target: T1, extracellular domain of activin …; assay: BIAcore SPR, biotinylated ActRIIBecd on chip; SD ±12.78 nM
Protocol: as §1

[8] = molecular target: T1, extracellular domain of activin …; assay: BIAcore SPR, biotinylated ActRIIBecd on chip; SD ±12.07 nM
Protocol: as §1

[9] = molecular target: T1, extracellular domain of activin …; assay: BIAcore SPR, biotinylated ActRIIBecd on chip; SD ±13.21 nM
Protocol: as §1

[10] = molecular target: T1, extracellular domain of activin …; assay: BIAcore SPR, biotinylated ActRIIBecd on chip; SD ±15.71 nM
Protocol: as §1

[11] = molecular target: T1, extracellular domain of activin …; assay: BIAcore SPR, biotinylated ActRIIBecd on chip; SD ±11.20 nM
Protocol: as §1

[12] = molecular target: T1, extracellular domain of activin …; assay: BIAcore SPR, biotinylated ActRIIBecd on chip; SD ±10.27 nM
Protocol: as §1

[13] = molecular target: T1, extracellular domain of activin …; assay: BIAcore SPR, biotinylated ActRIIBecd on chip; SD ±16.51 nM
Protocol: as §1

[14] = molecular target: T1, extracellular domain of activin …; assay: BIAcore SPR, biotinylated ActRIIBecd on chip; SD ±16.58 nM
Protocol: as §1

[15] = molecular target: T1, extracellular domain of activin …; assay: BIAcore SPR, biotinylated ActRIIBecd on chip; SD ±13.03 nM
Protocol: as §1

[16] = molecular target: T1, extracellular domain of activin …; assay: BIAcore SPR, biotinylated ActRIIBecd on chip; SD ±13.64 nM
Protocol: as §1

[17] = molecular target: T1, extracellular domain of activin …; assay: BIAcore SPR, biotinylated ActRIIBecd on chip; SD ±12.74 nM
Protocol: as §1

[18] = molecular target: T1, extracellular domain of activin …; assay: BIAcore SPR, biotinylated ActRIIBecd on chip; SD ±12.01 nM
Protocol: as §1

B1: Recombinant polypeptide of clones 8 + 14 + 19 (designed binder)
chain: GQAKRKGYKRLKSSCKRHPLYVDFKDVGWNDHAVAPPGYHAFYCHGECPFPLADHLNSDNHAIVQTKVNSVNSKDPKACCVPTELSAPSPLYLDENEKPVLKNYQDMVVHGCGCR
Kd [1]: 15.6 nM

B2: Recombinant polypeptide of clones 8 + 19 (designed binder)
chain: GQAKRKGYKRLKSSCKRHPLYNSKDPKACCVPTELSAPSPLYLDENEKPVLKNYQDMVVHGCGCR
Kd [2]: 31.1 nM

B6: Recombinant polypeptide of clones 10 + 21 (designed binder)
chain: AQAKHKQRKRLKSSCKRHPLYNSKIPKACCVPTELSAISMLYLDENEKVVLKNYQDMVVEGCGCR
Kd [6]: 27.3 nM

B11: Recombinant polypeptide of clones 10 + 15 + 21 (designed binder)
chain: AQAKHKQRKRLKSSCKRHPLYVDFSDVGWNDWIVAPPGYHAFYCHGECPFPLADHLNSTNHAIVQTLVNSVNSKIPKACCVPTELSAISMLYLDENEKVVLKNYQDMVVEGCGCR
Kd [11]: 17.2 nM

B13: Recombinant polypeptide of clones 14 + 8 (designed binder)
chain: VDFKDVGWNDHAVAPPGYHAFYCHGECPFPLADHLNSDNHAIVQTKVNSVGQAKRKGYKRLKSSCKRHPLY
Kd [13]: 33.8 nM

B16: Recombinant polypeptide of clones 8 + 14 (designed binder)
chain: GQAKRKGYKRLKSSCKRHPLYVDFKDVGWNDHAVAPPGYHAFYCHGECPFPLADHLNSDNHAIVQTKVNSV
Kd [16]: 35.1 nM

B17: Recombinant polypeptide of clones 10 + 15 (designed binder)
chain: AQAKHKQRKRLKSSCKRHPLYVDFSDVGWNDWIVAPPGYHAFYCHGECPFPLADHLNSTNHAIVQTLVNSV
Kd [17]: 31.3 nM

Further lines, results first:

Kd [3]: 16.7 nM
B3: Recombinant polypeptide of clones 21 + 10 + 15 (designed binder)
chain: NSKIPKACCVPTELSAISMLYLDENEKVVLKNYQDMVVEGCGCRAQAKHKQRKRLKSSCKRHPLYVDFSDVGWNDWIVAPPGYHAFYCHGECPFPLADHLNSTNHAIVQTLVNSV

Kd [4]: 30.2 nM
B4: Recombinant polypeptide of clones 21 + 10 (designed binder)
chain: NSKIPKACCVPTELSAISMLYLDENEKVVLKNYQDMVVEGCGCRAQAKHKQRKRLKSSCKRHPLY

Kd [5]: 17.6 nM
B5: Recombinant polypeptide of clones 14 + 8 + 19 (designed binder)
chain: VDFKDVGWNDHAVAPPGYHAFYCHGECPFPLADHLNSDNHAIVQTKVNSVGQAKRKGYKRLKSSCKRHPLYNSKDPKACCVPTELSAPSPLYLDENEKPVLKNYQDMVVHGCGCR

Kd [7]: 32.6 nM
B7: Recombinant polypeptide of clones 15 + 21 (designed binder)
chain: VDFSDVGWNDWIVAPPGYHAFYCHGECPFPLADHLNSTNHAIVQTLVNSVNSKIPKACCVPTELSAISMLYLDENEKVVLKNYQDMVVEGCGCR

Kd [8]: 31 nM
B8: Recombinant polypeptide of clones 14 + 19 (designed binder)
chain: B7 chain with S4K, W11H, I12A, T38D, L46K, I54D, I67P, M69P, V78P, E89H

Kd [9]: 15.1 nM
B9: Recombinant polypeptide of clones 15 + 10 + 21 (designed binder)
chain: VDFSDVGWNDWIVAPPGYHAFYCHGECPFPLADHLNSTNHAIVQTLVNSVAQAKHKQRKRLKSSCKRHPLYNSKIPKACCVPTELSAISMLYLDENEKVVLKNYQDMVVEGCGCR

Kd [10]: 33.5 nM
B10: Recombinant polypeptide of clones 19 + 8 (designed binder)
chain: NSKDPKACCVPTELSAPSPLYLDENEKPVLKNYQDMVVHGCGCRGQAKRKGYKRLKSSCKRHPLY

Kd [12]: 14.1 nM
B12: Recombinant polypeptide of clones 19 + 14 + 8 (designed binder)
chain: NSKDPKACCVPTELSAPSPLYLDENEKPVLKNYQDMVVHGCGCRVDFKDVGWNDHAVAPPGYHAFYCHGECPFPLADHLNSDNHAIVQTKVNSVGQAKRKGYKRLKSSCKRHPLY

Kd [14]: 31 nM
B14: Recombinant polypeptide of clones 21 + 15 (designed binder)
chain: NSKIPKACCVPTELSAISMLYLDENEKVVLKNYQDMVVEGCGCRVDFSDVGWNDWIVAPPGYHAFYCHGECPFPLADHLNSTNHAIVQTLVNSV

Kd [15]: 32.1 nM
B15: Recombinant polypeptide of clones 19 + 14 (designed binder)
chain: B14 chain with I4D, I17P, M19P, V28P, E39H, S48K, W55H, I56A, T82D, L90K

Kd [18]: 16 nM
B18: Recombinant polypeptide of clones 19 + 8 + 14 (designed binder)
chain: NSKDPKACCVPTELSAPSPLYLDENEKPVLKNYQDMVVHGCGCRGQAKRKGYKRLKSSCKRHPLYVDFKDVGWNDHAVAPPGYHAFYCHGECPFPLADHLNSDNHAIVQTKVNSV
